From the domain aggregation screens of Martell et al. (2025)
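Note: 20 min heating vs room temperature control held 20 min.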

Assay: soluble fraction after stress (log2 fold change); higher = more stays soluble; pooled small domains, quantitative proteomics
Details: stress: 75 degC
In the case of “HMVPLGDLSKNERRAMELAATNGNVTTRALADDAQVTKRTASTTLRRLAKRGLLEWIGKGPSDPGQFYRIP”, the “soluble fraction (log2)” value is reported as -0.351. With “HMVPLTPGELVGTEVRVLWWKEGRGEVIASSRGHQLTLEAHSEDPLRAGSTAVVLEAADDVLVVTS” the “soluble fraction (log2)” value was -0.734. For “HMVPPELEFLQSLMKIEDISELTAAIENNRDAVTDDFKEMLETVIENISGAPDTDPKLLERLKTIRTVLA”, the “soluble fraction (log2)” value was -0.0936. For “HMVPPVVRTIYGAGGKMTATFLFPGGYEVDAASGAELPGKYRVESISLDQVVLTDKDGNRVPVGFSSVAPT”, the “soluble fraction (log2)” value was 0.149. For “HMVPQEVLPITLIIDGKLIEENLLYAKMTEQVLIQQLDINNIKSIKQILFAGLDSFGNFFYQEKQN”, the “soluble fraction (log2)” value was -2.5. In the case of “HMVPTATVGENTSTLPVRQLPGGPVLVVLVRGDIVLPLPGHAFQNGDVWREISTVNGVIGWVPDEFLDY”, the “soluble fraction (log2)” value is reported as -2.25. In the case of “HMVPTVSVDRDDTLRFEGRPVDWDVLKRELGAVAGIDELKIYADAKVSALTVSKIMKSASEAGVLQFILVT”, the “soluble fraction (log2)” value is reported as -0.0735. In the case of “HMVQARDQNIEEGRQLVLRELDRLDLVNESLTDVAADMNMKSVEDMYAAIGAGDLRVGQVVHAVLKRAD”, the “soluble fraction (log2)” value is reported as 0.0164. With “HMVQDSEWWRNYQSAHDYFIQNGHLNVLRSDKKNTKLYNWIVGQRSSRWNSQGRINLLNSIGFIWDT” the “soluble fraction (log2)” value was -3.01. In the case of “HMVQISNTDDLYPIVQRIVDANPQSVEDYKNGKAKALGFLVGQMMKETKGKANPSMVNDLIIKAIEE”, the “soluble fraction (log2)” value is reported as -0.022. With “HMVQIVINKEVQTTSQTILRENAGTSSRNIGYVDPNVKLRATLDRNSFYFIPEKKGWIMKSRVKLIEDLS” the “soluble fraction (log2)” value was -3.77. For “HMVQMNMLELQEEMQRDRSWIIKHLFQDEYFRRKIAKFSQFPINDSGKYLFHRKSMLKFLNDYAEEIVER”, the “soluble fraction (log2)” value was -2.88. With “HMVQPSAAVRAHPVGAFVEQRQGLSDDQILALQKKWNEGIYARIQGTRWFLFSKDTPAVTSLLLVPDLP” the “soluble fraction (log2)” value was -0.47. For “HMVQVHEWTNKAGRTIKAKFVRGDAQSVTIFLGGRNFVLKIADLSEESQALARKLSAPPPPP”, the “soluble fraction (log2)” value was -2.52. In the case of “HMVQVPSLVGISEIEAKTLLTQAGFFVKIVEVFDANQPVGIVLAQAPSAGESRIIGSPVTITVNKAQ”, the “soluble fraction (log2)” value is reported as -2.41. In the case of “HMVQVRQPAGAGDLFAKGRLHLSTGTIHTVKPLEVDLPKGRLTVVTGVSGSGKTTLILESLLPALAAAAA”, the “soluble fraction (log2)” value is reported as 0.377. With “HMVRSLESESVYDRQRAYEIAYQLRTEERPYSFIATQLNKAGLRPQKAARYEWYSVQELLRSA” the “soluble fraction (log2)” value was -1.38. In the case of “HMVSDISTQYQKIINEALDKQPEVKLADIVTMIKEQTSNKVQNGIVENVAKQMNGIEIIKIGQAKGVRRTT”, the “soluble fraction (log2)” value is reported as 0.0482. With “HMVSDTGAIEAIVAQVLADNPKLVEGYLATPEDKRGKAIGPFIGLTRKAAAGVNPQVVMDVLKKKLSEL” the “soluble fraction (log2)” value was -0.27. With “HMVSEASELTDTINKIGSLAQALVGANKLSKTDLVGIIKKYHTSANYNSITDIGVAKNILAELEAKN” the “soluble fraction (log2)” value was 0.13. In the case of “HMVSFSIDEALVSAVKGPRSANVMSIQRQFLVRLSVERDGRVTITGANSKSVQQAREAVEAAVEEAKLHP”, the “soluble fraction (log2)” value is reported as -2.96. In the case of “HMVSGVMAQQAIAVLVQQEDKHAPLSDQALAERLQVQGIDISRRTVAKYRQLLQIPSAATRR”, the “soluble fraction (log2)” value is reported as -0.669. In the case of “HMVSIGSQVAKRRRELRLTQQNLAEKMGVSFQAISSWEREEFLPDINKLQKLAAILNTKISYLLEE”, the “soluble fraction (log2)” value is reported as -1.33. With “HMVSINETAFIQIKNSSATEIKEKITALKLDELKNVTITADIRTNKLIVVGPKATINKIQELVIELDTES” the “soluble fraction (log2)” value was -0.174. For “HMVSKTEAMAVFIADKLQEGMVPANEILELYKGMQLSDRTIRNAKKQLGIVSIRKDGQWYWSL”, the “soluble fraction (log2)” value was -1.05. For “HMVSLPSPLAGKVVSLTVQAGQEVKEGDEIMVLEAMKMNTQVHAPSSGRILALRVQPGDQVEEGQTLVTMG”, the “soluble fraction (log2)” value was 0.14. With “HMVSLSNQVFEKIEYDILSGKYKIGEIISEKRLSSELGVSRTPIREALGRLSEEGLVGDSPSGTVVLGI” the “soluble fraction (log2)” value was -0.368. With “HMVSRVTTPGVVGKTWQETKQILKQADLTVGSLTRDGKDVTPADGDLVTAQNPSAGQAIVRGSSVDLTFDK” the “soluble fraction (log2)” value was 0.0104. For “HMVSSYTMAIQINGKLRATHDFSVDTSQEDIKKIIINLPAIQKYINGVEIKKFIIVPQKIVNIV”, the “soluble fraction (log2)” value was -2.73. In the case of “HMVSTEDEISDKLLLDFALEKLSENEKQIVKLRYYNSLTQSKTAEILNMTQVQVSRSEKKILAKLRGII”, the “soluble fraction (log2)” value is reported as -0.0838. With “HMVSTGIMVVDGRGSVLQHNEAALRQLGVEVLTFESQVKEKLASEDFSVRETTAMLNGKKVRIIAFSDIR” the “soluble fraction (log2)” value was -2.44. In the case of “HMVSVEELLSSLDPNEATVLKLLAERSSGVDELMERSGLDFSALSEAITNLELFGYIAREMDGVYSFS”, the “soluble fraction (log2)” value is reported as -1.05. In the case of “HMVSVPDIGEKLPDFTGTPKRLLTPLLNKNDVNIIIKGDGWVVSQKPPAGTPVTKGMTIEFTL”, the “soluble fraction (log2)” value is reported as -0.525. For “HMVTDSGEIEKLVDEVIDNNPDQVQQFREGKQQVLSYLVGQAMKLSRGKANPNQVNQFLRDKL”, the “soluble fraction (log2)” value was 0.433. For “HMVTDTGEIEAIIDRVISENPDSVSDFKNGKERALKFLMGQAMKESKGKANPQIVNELLLKKL”, the “soluble fraction (log2)” value was -0.00511. For “HMVTDVDELEKLIQKVLDSNSSQVDEYRQGKEKVFGFFVGAVMKLTKGQADPDVVNQLLKEKLSGRK”, the “soluble fraction (log2)” value was -0.177. In the case of “HMVTDVDYSTFLSQVEEGKVESVTIEDGEILFKGKDENGEARWYITGEMNDPNLVERLKDKVPSFNAPA”, the “soluble fraction (log2)” value is reported as 0.194. In the case of “HMVTIYQRIMLVLEDKQVSVNALSKLVDMSQTTLNTQLKGERTLSANVVAKVLVAYPDVSAEWLMRGVGTM”, the “soluble fraction (log2)” value is reported as -0.96. With “HMVTLYDGFLSELRKRIPRGAELTNTLVDMLYIEREAVYRRLRGEVPFTFIEVMTVSKELGISLDNLAQA” the “soluble fraction (log2)” value was -1.38. With “HMVTTADIILEFYSRNPNATLTQAAQHVARATGTTYSRQAISAQLKRLEVAGLVERNGHVTV” the “soluble fraction (log2)” value was -0.226. In the case of “HMVTTLLIINVAGKVKNPGVYQLPPGSRVVDALEAAGQQLKGVDISDINLARVLVDGEQILIGSN”, the “soluble fraction (log2)” value is reported as -2.5. For “HMVTVQEGETLSAIAARSGVSVKDLVRANEIRNPDSIQEGQVLFVP”, the “soluble fraction (log2)” value was 0.115. For “HMVVADFQNYTVKPKENLYSLTKTSGLSQEELVALNPELKNGVQEGMVIKLPAAVKLMAQPE”, the “soluble fraction (log2)” value was 0.201. In the case of “HMVVLPGEVLRINVIQEGKEHGQGVGYMDDGTMVVIENGREFIGEYMEVNVTKVLQTAAGRMIFGRVD”, the “soluble fraction (log2)” value is reported as -2.31. In the case of “HMVVLPPTEDAPEWAQVFDRLGRPESADGYKLPVPEGADPAFAKLASAKMHELGLSAKQGAALAAWWNEQA”, the “soluble fraction (log2)” value is reported as 0.0475. For “HMVVMEIGANGSEVVKLQKRLNQLGYYTEHASGVYDVKTASAVNEFQRQNELNATGKADYTTLDMIYNQ”, the “soluble fraction (log2)” value was -0.00159. In the case of “HMVVRRLPFGFSKRFGVLVVPGTSNPVELLYREDASMQSLLEARRVVAQPVAFKKTDVESFNAQLARAHEN”, the “soluble fraction (log2)” value is reported as -1.66. In the case of “HMVVSDSAEIDKIVQDVIAANPKAIEDFKSGKTNVTGWLMGQVMKLSHGKANPKQATEILNKYLSK”, the “soluble fraction (log2)” value is reported as 0.513. For “HMVVTRVKAIDVVNIRKSDSETADKLGKAAVGDEFDLLEKKGNGWSKISYEGGEAYIKSEFLEPSE”, the “soluble fraction (log2)” value was 0.602. In the case of “HMVVVMEKNASSAEIEQVQERLRQAGFKIHLSQGVERTIIGAIGDRSQVDLGFLEALPGVEKVVPIMK”, the “soluble fraction (log2)” value is reported as 0.171. With “HMVVYFGGPVMLERGIVLHTPDISTKGTINVSDDFALTAHKEILDNINKDTSSLQFKLAIGH” the “soluble fraction (log2)” value was -0.616. With “HMVWINIRDLSDLFSKSGKSENSKNILDLQTLKIEKLLGGGQINTPYTIKVKQATPSAIEKVKQAGGEVIL” the “soluble fraction (log2)” value was -0.104. For “HMVWPETEAIVTEDFIGKKRSEVQQEGVIFEFFGEGDMVIDQLPRGGVTLNESGRVWIYLGEDTF”, the “soluble fraction (log2)” value was -0.78. In the case of “HMVYFAKNIRHLRRLRGMSQELLAAELDITRARLGAYEESRSEPPLHLLIKISEFFKLPVDIIVKNDLTKS”, the “soluble fraction (log2)” value is reported as -4.88. With “HMVYFDDEELDRFAGRAADSYTSDETDEFRDVMLTLLPADVMPWTQSIEMRGILLPEQLRDELLML” the “soluble fraction (log2)” value was -0.391. With “HMVYVPTKAEVSQQFQDASKARFDERYAIVELADGRRTMAPLAFLTKADHAWLKQLASTSPLPKGK” the “soluble fraction (log2)” value was -0.16. With “HMWAQSVSLHGLLGRQALLIVDGKPPRAVAPGQTHLGVTVLSTDEDRAVVALAGGQRLTLRVGESPVSVG” the “soluble fraction (log2)” value was -1.51. In the case of “HMWMEKEELLWNDIIRGGVERGELREDTDIQEAAALFRQVFIGLAYQMSFSDGLDVGILRKRFHHIYGLLT”, the “soluble fraction (log2)” value is reported as -0.173. For “HMWNKGETKIPTQAQNELIKRRQAGATWTSLSEWLKATYGIDIHRTNIQRWYDKEVYLDQEN”, the “soluble fraction (log2)” value was -0.531. For “HMWNPVLVVRGDFPKDLATTLLKMIFAQKEALNPHILFQNLLRTDNITFRESYPYHSASKTMFRF”, the “soluble fraction (log2)” value was -0.276. For “HMWPQIAGFADRFGLSDTERRIVTLMSHGRSRKIIASTLGYSQNTIRNYTRNIYAKAGVHSKQELLDLLDP”, the “soluble fraction (log2)” value was -1.96. With “HMWPTPRTWSALMNELNLYKENHGYANIVDIPSEKIRRMADGIIGEDMAVRYVAFLQSHASS” the “soluble fraction (log2)” value was -1.7. In the case of “HMWQKGEPAITGLKRISKPGLRIYSKNDELPIVYGNRGIAVISTNKGVMTGIEAKRSGVGGEVLFYV”, the “soluble fraction (log2)” value is reported as -0.112. In the case of “HMWSAREQVVNSLREAILTSELKAGERLVLSDLSARLGVSVTPIREALQSLEREGLVQLMPHQEAVVV”, the “soluble fraction (log2)” value is reported as 0.18. With “HMWVETITTKAGITKYKFQERYTDTYSGKTKRVSVTYTSNSRQAYKLAQAELQKKIDLATNTD” the “soluble fraction (log2)” value was -0.638. In the case of “HMYAHLGKNLEVVINKALAQEDPEKKAGFAHHIAYYMKLAYSNWHKELVHDDAIRSELDTITGGELEFSN”, the “soluble fraction (log2)” value is reported as 0.609. With “HMYAHTPEMEAMNELGLEPPVTLDEIKKTYKTLVKKYHPDHNKEDPEAEEKLKKVNMAYTILKVAYTEFEK” the “soluble fraction (log2)” value was -0.246. For “HMYALGIPVSQYRRTTQVLGHESSYPIAYEDEKQDDDFYLFKFPNIDEYDFKKIVILLKQNGITT”, the “soluble fraction (log2)” value was -2.11. For “HMYDNTVTKYVNSLSVYVRKGPSTSDEIVTSLIKDTDVTVVGENGEWYKIKYKEFEGYIYKNLLSDNKT”, the “soluble fraction (log2)” value was -1.91. With “HMYDRIKLLKLREKRGLTQYELAEKAGISVVTLNKIETSDMAKPFASTLKKIALALGVGIEELS” the “soluble fraction (log2)” value was -2.2.
